Laboratory results as given in the supplement of paper PMC10567573.

B1: SMOC2 (parent)
chain: DCAGSPQKPLCASDGRTFLSRCEF

Variants of: B1
Assay: protein stability index of a GFP-peptide fusion (GPS, HEK-293T) (PSI 1-6); higher = more stable
Conditions: c terminus: a fixed tail appended
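Note: lentivirally expressed fusions sorted by FACS into six bins by GFP to DsRed ratio, PSI derived from sequencing read proportions per bin multiplied by bin number.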

Variant	protein stability index
DCAGSPQKCLCASDGRTFLSRCEF [P9C]	2.65
DCAGSPQKKLCASDGRTFLSRCEF [P9K]	1.85
DCAGSPQKYLCASDGRTFLSRCEF [P9Y]	2.47
DCAGSPQKRLCASDGRTFLSRCEF [P9R]	2.77
DCAGSPQKDLCASDGRTFLSRCEF [P9D]	2.97
DCAGSPCKPLCASDGRTFLSRCEF [Q7C]	2.26
DCAGSPHKPLCASDGRTFLSRCEF [Q7H]	2.1
DCAGSPLKPLCASDGRTFLSRCEF [Q7L]	2.11
DCAGSPEKPLCASDGRTFLSRCEF [Q7E]	1.81
DCAGSPYKPLCASDGRTFLSRCEF [Q7Y]	2.36
DCAGSPMKPLCASDGRTFLSRCEF [Q7M]	2.73
DCAGSPQKPLCASDGRTFLSRCER [F24R]	2.57
DCAGSPQKPLCASDGRTFLSRCEQ [F24Q]	3.6
DCAGSPQKPLCASDGRTFLSRCEE [F24E]	4.41
DCAGSPQKPLCASDGRTFLSRCES [F24S]	3.46
DCAGSPQKPLCASDGRTFLSRCEK [F24K]	2.97
DCAGSPQKPLCASDGRTFLSRCEM [F24M]	2.72
DCAGSNQKPLCASDGRTFLSRCEF [P6N]	2.66
DCAGSLQKPLCASDGRTFLSRCEF [P6L]	2.18
DCAGSRQKPLCASDGRTFLSRCEF [P6R]	2.19
DCAGSIQKPLCASDGRTFLSRCEF [P6I]	2.34
DCAGSSQKPLCASDGRTFLSRCEF [P6S]	3.39
DCAGSHQKPLCASDGRTFLSRCEF [P6H]	2.21
DCAGSGQKPLCASDGRTFLSRCEF [P6G]	2.62

Variant	protein stability index
DCAGSKQKPLCASDGRTFLSRCEF [P6K]	1.69
DCAGSPQKPLCASDGRTTLSRCEF [F18T]	4
DCAGSPQKPLCASDGRTMLSRCEF [F18M]	4.01
DCAGSPQKPLCASDGRTYLSRCEF [F18Y]	3.09
DCAGSPQKPLCASDGRTILSRCEF [F18I]	3.4
DCAGSPQKPLCASDGRTCLSRCEF [F18C]	3.73
DCAGSPQKPLCASDGRTQLSRCEF [F18Q]	3.89
DCAGSPQKPLCASDGRTRLSRCEF [F18R]	3.84
DCAGSPQKPLCASDGRTSLSRCEF [F18S]	3.83
DCAGSPQKPLCASNGRTFLSRCEF [D14N]	2.47
DCAGSPQKPLCASTGRTFLSRCEF [D14T]	2.82
DCAGSPQKPLCASPGRTFLSRCEF [D14P]	2.36
DCAGSPQKPLCASQGRTFLSRCEF [D14Q]	2.39
DCAGSPQKPLCASGGRTFLSRCEF [D14G]	2.56
DCAGSPQKPLCASVGRTFLSRCEF [D14V]	2.6
DCAGSPQKPLCASKGRTFLSRCEF [D14K]	2.4
DCAGSPQKPLCASDGRTFLSLCEF [R21L]	3.02
DCAGSPQKPLCASDGRTFLSDCEF [R21D]	4.14
DCAGSPQKPLCASDGRTFLSCCEF [R21C]	2.44
DCAGSPQKPLCASDGRTFLSYCEF [R21Y]	2.27
MCAGSPQKPLCASDGRTFLSRCEF [D1M]	1.7
GCAGSPQKPLCASDGRTFLSRCEF [D1G]	2.38
ECAGSPQKPLCASDGRTFLSRCEF [D1E]	3.69
LCAGSPQKPLCASDGRTFLSRCEF [D1L]	2.85

Variant	protein stability index
ACAGSPQKPLCASDGRTFLSRCEF [D1A]	1.89
ICAGSPQKPLCASDGRTFLSRCEF [D1I]	2.92
KCAGSPQKPLCASDGRTFLSRCEF [D1K]	2.59
SCAGSPQKPLCASDGRTFLSRCEF [D1S]	1.93
DCAGSPQKPLCASDGRTFLQRCEF [S20Q]	2.97
DCAGSPQKPLCASDGRTFLDRCEF [S20D]	4.1
DCAGSPQKPLCASDGRTFLIRCEF [S20I]	3.04
DCAGSPQKPLCASDGRTFLWRCEF [S20W]	3.01
DCAGSPQKPLCASDGRTFLGRCEF [S20G]	2.17
DCAGSPQKPLCASDGRTFLYRCEF [S20Y]	1.9
DCAGSPQDPLCASDGRTFLSRCEF [K8D]	3.33
DCAGSPQYPLCASDGRTFLSRCEF [K8Y]	1.9
DCAGSPQTPLCASDGRTFLSRCEF [K8T]	2.69
DCAGSPQWPLCASDGRTFLSRCEF [K8W]	2.46
DCAGSPQSPLCASDGRTFLSRCEF [K8S]	2.34
DCAGSPQNPLCASDGRTFLSRCEF [K8N]	2.3
DCAGSPQMPLCASDGRTFLSRCEF [K8M]	2.23
DCAGSPQHPLCASDGRTFLSRCEF [K8H]	2.48
DCAGSPQLPLCASDGRTFLSRCEF [K8L]	2.41
DCAGSPQEPLCASDGRTFLSRCEF [K8E]	2.17
DCAGSPQRPLCASDGRTFLSRCEF [K8R]	2.83
DCAGSPQKPCCASDGRTFLSRCEF [L10C]	2.85
DCAGSPQKPMCASDGRTFLSRCEF [L10M]	2.56
DCAGSPQKPVCASDGRTFLSRCEF [L10V]	2.28

Variant	protein stability index
DCAGSPQKPRCASDGRTFLSRCEF [L10R]	2.48
DCAGSPQKPECASDGRTFLSRCEF [L10E]	3.84
DCAGSPQKPGCASDGRTFLSRCEF [L10G]	3.23
DCAGSPQKPPCASDGRTFLSRCEF [L10P]	2.93
DCAGSPQKPDCASDGRTFLSRCEF [L10D]	3.29
DCAGSPQKPLVASDGRTFLSRCEF [C11V]	2.66
DCAGSPQKPLGASDGRTFLSRCEF [C11G]	2.04
DCAGSPQKPLRASDGRTFLSRCEF [C11R]	2.28
DCAGSPQKPLWASDGRTFLSRCEF [C11W]	2.41
DCAGSPQKPLLASDGRTFLSRCEF [C11L]	3.3
DCAGSPQKPLIASDGRTFLSRCEF [C11I]	2.56
DCAGSPQKPLSASDGRTFLSRCEF [C11S]	3.19
DCAGSPQKPLEASDGRTFLSRCEF [C11E]	3.46
DMAGSPQKPLCASDGRTFLSRCEF [C2M]	2.86
DWAGSPQKPLCASDGRTFLSRCEF [C2W]	2.23
DFAGSPQKPLCASDGRTFLSRCEF [C2F]	3.25
DIAGSPQKPLCASDGRTFLSRCEF [C2I]	2.25
DNAGSPQKPLCASDGRTFLSRCEF [C2N]	2.81
DHAGSPQKPLCASDGRTFLSRCEF [C2H]	3.36
DCAGSPQKPLCASDGFTFLSRCEF [R16F]	1.35
DCAGSPQKPLCASDGITFLSRCEF [R16I]	2.4
DCAGSPQKPLCASDGTTFLSRCEF [R16T]	3.39
